Test results as given in patent EP1324044A1.

Target: Fas receptor on primary mouse thyroid follicular cells (TFC) (mouse) (UniProt P25446)
Test: cell-based or functional assay

Chain of UniProt P25446 (P25446 22-327): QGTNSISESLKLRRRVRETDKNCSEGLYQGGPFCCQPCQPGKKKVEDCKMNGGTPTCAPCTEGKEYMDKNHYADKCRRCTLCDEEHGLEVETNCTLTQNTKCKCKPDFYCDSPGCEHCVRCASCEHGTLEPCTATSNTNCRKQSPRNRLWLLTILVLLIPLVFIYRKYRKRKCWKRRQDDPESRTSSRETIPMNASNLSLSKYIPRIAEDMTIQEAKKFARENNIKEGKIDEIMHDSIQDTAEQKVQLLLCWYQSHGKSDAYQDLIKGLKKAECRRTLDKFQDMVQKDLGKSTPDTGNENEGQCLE

percentage of proliferation increase of anti-Fas versus control cultures ([3H] thymidine), 48h: 37%
percentage of proliferation increase of anti-Fas versus control cultures ([3H] thymidine), 72h: 49%
percentage of proliferation increase of anti-Fas versus control cultures ([3H] thymidine), 96h: 61%
proliferation of anti-Fas treated TFC ([3H] thymidine, mean cpm of six wells): 392 to 1510 cpm
Substance: clone Jo2 anti-Fas antibody
